Test results from publication PMC10454580, “Exploring the Binding Affinity of the ARR2 GARP DNA Binding Domain via Comparative Methods”.

How the values were obtained:
Conditions in all cases: protein: recombinant; tags: N-terminal 8xHis-MBP; label: 5' biotin on antisense strand (DPI-ELISA); 5' Alexa647 on antisense strand (FCS); unlabeled (MST); blunt
[1] = target: T1, His8-MBP-GARP2 (ARR2 GARP DNA-binding domain) (UniProt Q9ZWJ9 211-275); assay: MST; thermophoresis 45/3; bounds 218.2-1077.2; MST: PBS-T, 250 nM protein, 25 nM RED-tris-NTA, 40% MST power, 22-26 C; FCS: PBS, 25 C; qDPI-ELISA: TBS/TBS-T (20 mM Tris, 0.18 M NaCl, pH 7.5, 0.1% Tween-20)
T1 sequence: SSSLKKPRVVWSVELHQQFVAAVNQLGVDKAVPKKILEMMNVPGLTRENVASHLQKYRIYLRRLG

[2] = target: T1, His8-MBP-GARP2 (ARR2 GARP DNA-binding …); assay: MST; inverse T-jump 6/5; bounds 471.3-1412.8; MST: PBS-T, 250 nM protein, 25 nM RED-tris-NTA, 40% MST power, 22-26 C; FCS: PBS, 25 C; qDPI-ELISA: TBS/TBS-T (20 mM Tris, 0.18 M NaCl, pH 7.5, 0.1% Tween-20)
[3] = target: T1, His8-MBP-GARP2 (ARR2 GARP DNA-binding …); assay: MST; thermophoresis 410/3; bounds 211.1-2267.5; MST: PBS-T, 250 nM protein, 25 nM RED-tris-NTA, 40% MST power, 22-26 C; FCS: PBS, 25 C; qDPI-ELISA: TBS/TBS-T (20 mM Tris, 0.18 M NaCl, pH 7.5, 0.1% Tween-20)
[4] = target: T1, His8-MBP-GARP2 (ARR2 GARP DNA-binding …); assay: MST; thermophoresis 44/3; bounds 229.7-868.7; MST: PBS-T, 250 nM protein, 25 nM RED-tris-NTA, 40% MST power, 22-26 C; FCS: PBS, 25 C; qDPI-ELISA: TBS/TBS-T (20 mM Tris, 0.18 M NaCl, pH 7.5, 0.1% Tween-20)
[5] = target: T1, His8-MBP-GARP2 (ARR2 GARP DNA-binding …); assay: MST; thermophoresis 46/3; bounds 192.7-1173.8; MST: PBS-T, 250 nM protein, 25 nM RED-tris-NTA, 40% MST power, 22-26 C; FCS: PBS, 25 C; qDPI-ELISA: TBS/TBS-T (20 mM Tris, 0.18 M NaCl, pH 7.5, 0.1% Tween-20)
[6] = target: T1, His8-MBP-GARP2 (ARR2 GARP DNA-binding …); assay: MST; thermophoresis 43/3; bounds 260.4-960.9; MST: PBS-T, 250 nM protein, 25 nM RED-tris-NTA, 40% MST power, 22-26 C; FCS: PBS, 25 C; qDPI-ELISA: TBS/TBS-T (20 mM Tris, 0.18 M NaCl, pH 7.5, 0.1% Tween-20)
[7] = target: T1, His8-MBP-GARP2 (ARR2 GARP DNA-binding …); assay: MST; back diffusion 8/7; bounds 61.0-374.4; MST: PBS-T, 250 nM protein, 25 nM RED-tris-NTA, 40% MST power, 22-26 C; FCS: PBS, 25 C; qDPI-ELISA: TBS/TBS-T (20 mM Tris, 0.18 M NaCl, pH 7.5, 0.1% Tween-20)
[8] = target: T1, His8-MBP-GARP2 (ARR2 GARP DNA-binding …); assay: MST; T-jump region 2/1; ESP bounds 33.9-203.5; MST: PBS-T, 250 nM protein, 25 nM RED-tris-NTA, 40% MST power, 22-26 C; FCS: PBS, 25 C; qDPI-ELISA: TBS/TBS-T (20 mM Tris, 0.18 M NaCl, pH 7.5, 0.1% Tween-20)
[9] = target: T1, His8-MBP-GARP2 (ARR2 GARP DNA-binding …); assay: MST; thermophoresis 47/3; bounds 202.0-1474.6; MST: PBS-T, 250 nM protein, 25 nM RED-tris-NTA, 40% MST power, 22-26 C; FCS: PBS, 25 C; qDPI-ELISA: TBS/TBS-T (20 mM Tris, 0.18 M NaCl, pH 7.5, 0.1% Tween-20)
[10] = target: T1, His8-MBP-GARP2 (ARR2 GARP DNA-binding …); assay: MST; thermophoresis 41/3; bounds 250.9-787.3; MST: PBS-T, 250 nM protein, 25 nM RED-tris-NTA, 40% MST power, 22-26 C; FCS: PBS, 25 C; qDPI-ELISA: TBS/TBS-T (20 mM Tris, 0.18 M NaCl, pH 7.5, 0.1% Tween-20)
[11] = target: T1, His8-MBP-GARP2 (ARR2 GARP DNA-binding …); assay: MST; thermophoresis 49/3; bounds 200.6-1912.2; MST: PBS-T, 250 nM protein, 25 nM RED-tris-NTA, 40% MST power, 22-26 C; FCS: PBS, 25 C; qDPI-ELISA: TBS/TBS-T (20 mM Tris, 0.18 M NaCl, pH 7.5, 0.1% Tween-20)
[12] = target: T1, His8-MBP-GARP2 (ARR2 GARP DNA-binding …); assay: MST; thermophoresis 42/3; bounds 259.5-988.2; MST: PBS-T, 250 nM protein, 25 nM RED-tris-NTA, 40% MST power, 22-26 C; FCS: PBS, 25 C; qDPI-ELISA: TBS/TBS-T (20 mM Tris, 0.18 M NaCl, pH 7.5, 0.1% Tween-20)
[13] = target: T1, His8-MBP-GARP2 (ARR2 GARP DNA-binding …); assay: MST; thermophoresis 48/3; bounds 240.8-1742.8; MST: PBS-T, 250 nM protein, 25 nM RED-tris-NTA, 40% MST power, 22-26 C; FCS: PBS, 25 C; qDPI-ELISA: TBS/TBS-T (20 mM Tris, 0.18 M NaCl, pH 7.5, 0.1% Tween-20)

B1: wtOligo (ARR5 promoter fragment) (dsDNA)
DNA 1: TTAACAATCTCAAAGATTTTGTAGATTGAAATACAAATCTTCTCT
DNA 2: AGAGAAGATTTGTATTTCAATCTACAAAATCTTTGAGATTGTTAA
Kd [1]: 510 ± 212 nM
Kd [2]: 826 ± 222 nM
Kd [3]: 738 ± 505 nM
Kd [4]: 462 ± 163 nM
Kd [5]: 506 ± 246 nM
Kd [6]: 520 ± 172 nM
Kd [7]: 166 ± 74.3 nM
Kd [8]: 93.3 ± 40.3 nM
Kd [9]: 578 ± 317 nM
Kd [10]: 456 ± 132 nM
Kd [11]: 660 ± 419 nM
Kd [12]: 526 ± 178 nM
Kd [13]: 679 ± 376 nM
